Each block holds one binder with its values, some of them ahead of it.
What was measured:
Lysozyme (R&D Systems) = Lysozyme (R&D Systems) (UniProt P00698 19-147); assay: SPR, Fab construct captured via anti-human F(ab)2, lysozyme 0.1-10 nM, Langmuir model
[1] = target: T1, IL-2-Rβ (IL-2 receptor β chain, R&D Systems) (UniProt P14784 27-239); assay: SPR (Biacore), fusion captured on anti-human F(ab)2, 100 nM IL-2-sRβ injected, with or without premixed 200 nM IL-15
T1 construct: also called IL-2-sRβ
T1 sequence (looked up): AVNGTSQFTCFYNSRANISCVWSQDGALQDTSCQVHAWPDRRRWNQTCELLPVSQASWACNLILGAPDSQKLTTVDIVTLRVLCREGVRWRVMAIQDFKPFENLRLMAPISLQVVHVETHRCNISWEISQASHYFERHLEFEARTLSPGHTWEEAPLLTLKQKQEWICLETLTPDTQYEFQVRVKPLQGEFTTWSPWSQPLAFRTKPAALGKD

human recombinant IL-17A = human recombinant IL-17A (human, UniProt Q16552 24-155, limits assumed); assay: cell-based or functional assay
[2] = target: T1, IL-2-Rβ (IL-2 receptor β chain, R&D …); assay: SPR (Biacore), fusion captured on anti-human F(ab)2, 100 nM IL-2-Rβ injected
[3] = target: T2, GM-CSF receptor, cognate for the human GM-CSF constructs (GM-CSF-Ra, R&D Systems) (UniProt P15509 23-320); assay: SPR (Biacore), fusion captured on anti-human F(ab)2, 100 nM GM-CSF receptor injected
T2 construct: also called cognate GM-CSF receptor
T2 sequence (looked up): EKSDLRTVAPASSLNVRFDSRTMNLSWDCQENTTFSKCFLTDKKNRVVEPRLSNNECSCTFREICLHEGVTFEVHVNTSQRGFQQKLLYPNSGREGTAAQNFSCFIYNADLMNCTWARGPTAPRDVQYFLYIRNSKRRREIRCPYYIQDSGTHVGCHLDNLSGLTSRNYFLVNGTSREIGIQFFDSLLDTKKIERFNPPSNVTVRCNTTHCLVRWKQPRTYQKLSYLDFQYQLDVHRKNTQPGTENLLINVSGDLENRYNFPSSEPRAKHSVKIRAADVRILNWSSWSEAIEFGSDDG

IL-6 (R&D Systems) = IL-6 (R&D Systems) (UniProt P05231 30-212, limits assumed); assay: SPR (Biacore), fusion captured on anti-human F(ab)2, 100 nM IL-6 injected alone or with 1000 nM HSA
[4] = target: T1, IL-2-Rβ (IL-2 receptor β chain, R&D …); assay: SPR (Biacore), fusion captured on anti-human F(ab)2, 100 nM IL-2-sRβ injected, with or without premixed 200 nM IL-15; remark: listed apart in the source

B1: HyHEL5/VHH D3L11Fwk3 (anti-lysozyme HyHEL5 Fab with anti-lysozyme VHH D3L11 inserted into framework 3 of the light chain) (bispecific antibody)
heavy: EVQLQQSGAELMKPGASVKISCKASGYTFSDYWIEWVKQRPGHGLEWIGEILPGSGSTNYHERFKGKATFTADTSSSTAYMQLNSLTSEDSGVYYCLHGNYDFDGWGQGTTLTVSSASTKGPSVFPLAPSSKSTSGGTAALGCLVKDYFPEPVTVSWNSGALTSGVHTFPAVLQSSGLYSLSSVVTVPSSSLGTQTYICNVNHKPSNTKVDKKVEPKSC
light: DIVLTQSPAIMSASPGEKVTMTCSASSSVNYMYWYQQKSGTSPKRWIYDTSKLASGVPVRFSGSGSGSGGGGSDVQLVESGGGSVQAGGSLRLSCAASGSTDSIEYMTWFRQAPGKAREGVAALYTHTGNTYYTDSVKGRFTISQDKAKNMAYLRMDSVKSEDTAIYTCGATRKYVPVRFALDQSSYDYWGQGTQVTVSSGGGGSGGGGSGGGGSTSYSLTISSMETEDAATYYCQQWGRNPTFGGGTKLEIKRTVAAPSVFIFPPSDEQLKSGTASVVCLLNNFYPREAKVQWKVDNALQSGNSQESVTEQDSKDSTYSLSSTLTLSKADYEKHKVYACEVTHQGLSSPVTKSFNRGEC
notes: also called Antibody: HyHEL5 Fab, Framework 3 Insert: VHH D3L11
- Kd (Lysozyme (R&D Systems)): 0.026 nM

B2: HyHEL5/VHH15Fwk3 (anti-lysozyme HyHEL5 Fab with anti-IL-6 VHH15 inserted into framework 3 of the light chain) (bispecific antibody)
heavy: B1 heavy
light: DIVLTQSPAIMSASPGEKVTMTCSASSSVNYMYWYQQKSGTSPKRWIYDTSKLASGVPVRFSGSGSGSGGGGSQVQLVESGGGSVQAGGSLRLSCVAASGYTGCTYDMRWYRQAPGKEREFVSGIDSDGRATYADSVKGRFTISQSNAKIAVYLQMDSLKLEDTAMYYCNLQCLRYPGEYYWGQGTQVTVSSGGGGSGGGGSGGGGSTSYSLTISSMETEDAATYYCQQWGRNPTFGGGTKLEIKRTVAAPSVFIFPPSDEQLKSGTASVVCLLNNFYPREAKVQWKVDNALQSGNSQESVTEQDSKDSTYSLSSTLTLSKADYEKHKVYACEVTHQGLSSPVTKSFNRGEC
notes: also called Antibody: HyHEL5 Fab, Framework 3 Insert: VHH15
- Kd (Lysozyme (R&D Systems)): 0.31 nM

B3: CA240/IL-15Fwk3 (anti-IL-6 CA240 Fab with human IL-15 inserted into framework 3 of the VH domain) (Fab)
heavy: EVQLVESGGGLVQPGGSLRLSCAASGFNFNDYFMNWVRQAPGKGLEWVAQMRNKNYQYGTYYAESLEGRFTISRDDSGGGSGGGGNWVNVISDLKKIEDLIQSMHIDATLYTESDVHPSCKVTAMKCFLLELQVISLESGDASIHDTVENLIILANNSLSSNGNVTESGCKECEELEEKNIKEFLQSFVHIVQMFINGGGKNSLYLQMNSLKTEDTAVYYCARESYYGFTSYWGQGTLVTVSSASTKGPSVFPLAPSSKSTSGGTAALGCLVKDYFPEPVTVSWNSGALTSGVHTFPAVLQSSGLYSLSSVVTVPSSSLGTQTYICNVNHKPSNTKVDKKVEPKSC
light: DIQMTQSPSSLSASVGDRVTITCQASQDIGISLSWYQQKPGKAPKLLIYNANNLADGVPSRFSGSGSGTDFTLTISSLQPEDFATYYCLQHNSAPYTFGQGTKLEIKRTVAAPSVFIFPPSDEQLKSGTASVVCLLNNFYPREAKVQWKVDNALQSGNSQESVTEQDSKDSTYSLSSTLTLSKADYEKHKVYACEVTHQGLSSPVTKSFNRGEC
notes: also called CA240/IL-15 antibody fusion protein
- binding result [1]: binds

B4: CA645/VHH D3L11Fwk3 (CA645 Fab with anti-lysozyme VHH D3L11 inserted into framework 3 of the light chain) (bispecific antibody)
heavy: EVQLLESGGGLVQPGGSLRLSCAVSGIDLSNYAINWVRQAPGKGLEWIGIIWASGTTFYATWAKGRFTISRDNSKNTVYLQMNSLRAEDTAVYYCARTVPGYSTAPYFDLWGQGTLVTVSSASTKGPSVFPLAPSSKSTSGGTAALGCLVKDYFPEPVTVSWNSGALTSGVHTFPAVLQSSGLYSLSSVVTVPSSSLGTQTYICNVNHKPSNTKVDKKVEPKSC
light: DIQMTQSPSSVSASVGDRVTITCQSSPSVWSNFLSWYQQKPGKAPKLLIYEASKLTSGVPSRFSGSGSGSGGGGSDVQLVESGGGSVQAGGSLRLSCAASGSTDSIEYMTWFRQAPGKAREGVAALYTHTGNTYYTDSVKGRFTISQDKAKNMAYLRMDSVKSEDTAIYTCGATRKYVPVRFALDQSSYDYWGQGTQVTVSSGGGGSGGGGSGGGGSTDFTLTISSLQPEDFATYYCGGGYSSISDTTFGGGTKVEIKRTVAAPSVFIFPPSDEQLKSGTASVVCLLNNFYPREAKVQWKVDNALQSGNSQESVTEQDSKDSTYSLSSTLTLSKADYEKHKVYACEVTHQGLSSPVTKSFNRGEC
notes: also called Antibody: CA645 Fab, Framework 3 Insert: VHH D3L11
- Kd (Lysozyme (R&D Systems)): 0.48 nM

B5: CA645 Fab-Fwk3 CA497 dsscFv (vLvH) (bispecific antibody)
heavy: EVQLLESGGGLVQPGGSLRLSCAVSGIDLSNYAINWVRQAPGKGLEWIGIIWASGTTFYATWAKGRFTISRDNSGGGGSGGGGSAIQLTQSPSSLSASVGDRVTITCKASESVSSSMYSYMHWYQQKPGKAPKLLIYRASNLESGVPSRFSGSGSGTDFTLTISSLQPEDFATYYCQQSWTAPRTFGCGTKVEIKGGGGSGGGGSGGGGSEVQLVESGGGLVKPGGSLRLSCAASGVIFSDYYMAWVRQAPGKCLEWVASINFNADISYYRESVKGRFTISRDDSKNTLYLQMNSLKTEDTAVYYCTTDANRQNYDWFAYWGQGTLVTVSSGGGGSGGGGSKNTVYLQMNSLRAEDTAVYYCARTVPGYSTAPYFDLWGQGTLVTVSSASTKGPSVFPLAPSSKSTSGGTAALGCLVKDYFPEPVTVSWNSGALTSGVHTFPAVLQSSGLYSLSSVVTVPSSSLGTQTYICNVNHKPSNTKVDKKVEPKSC
light: DIQMTQSPSSVSASVGDRVTITCQSSPSVWSNFLSWYQQKPGKAPKLLIYEASKLTSGVPSRFSGSGSGTDFTLTISSLQPEDFATYYCGGGYSSISDTTFGGGTKVEIKRTVAAPSVFIFPPSDEQLKSGTASVVCLLNNFYPREAKVQWKVDNALQSGNSQESVTEQDSKDSTYSLSSTLTLSKADYEKHKVYACEVTHQGLSSPVTKSFNRGEC
- IL-17A EC50 (ng/ml), neutralisation of IL-17A (IL-6 secretion by Hela cells), with HSA (human recombinant IL-17A): 10.8 ng/mL
- IL-17A EC50 (ng/ml), neutralisation of IL-17A (IL-6 secretion by Hela cells), without HSA (human recombinant IL-17A): 10.5 ng/mL

B6: CA645/IL-15Fwk3 with bovine short linker (Fab)
heavy: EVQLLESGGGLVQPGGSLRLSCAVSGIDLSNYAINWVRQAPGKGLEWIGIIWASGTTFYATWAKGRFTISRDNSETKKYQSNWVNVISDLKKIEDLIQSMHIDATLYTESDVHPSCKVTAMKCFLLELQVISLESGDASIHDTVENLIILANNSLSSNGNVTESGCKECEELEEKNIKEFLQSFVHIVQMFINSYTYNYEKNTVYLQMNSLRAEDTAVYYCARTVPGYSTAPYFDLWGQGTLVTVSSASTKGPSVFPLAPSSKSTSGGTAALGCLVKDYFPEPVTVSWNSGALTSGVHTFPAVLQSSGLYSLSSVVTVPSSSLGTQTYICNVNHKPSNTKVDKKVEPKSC
light: B5 light
notes: also called CA645 Fab heavy chain with human IL-15 inserted into framework 3 with bovine short linker
- binding result [2]: binds

B8: CA645 Fab-Fwk3 CA497 dsscFv (vHvL) (bispecific antibody)
heavy: EVQLLESGGGLVQPGGSLRLSCAVSGIDLSNYAINWVRQAPGKGLEWIGIIWASGTTFYATWAKGRFTISRDNSGGGGSGGGGSEVQLVESGGGLVKPGGSLRLSCAASGVIFSDYYMAWVRQAPGKCLEWVASINFNADISYYRESVKGRFTISRDDSKNTLYLQMNSLKTEDTAVYYCTTDANRQNYDWFAYWGQGTLVTVSSGGGGSGGGGSGGGGSAIQLTQSPSSLSASVGDRVTITCKASESVSSSMYSYMHWYQQKPGKAPKLLIYRASNLESGVPSRFSGSGSGTDFTLTISSLQPEDFATYYCQQSWTAPRTFGCGTKVEIKGGGGSGGGGSKNTVYLQMNSLRAEDTAVYYCARTVPGYSTAPYFDLWGQGTLVTVSSASTKGPSVFPLAPSSKSTSGGTAALGCLVKDYFPEPVTVSWNSGALTSGVHTFPAVLQSSGLYSLSSVVTVPSSSLGTQTYICNVNHKPSNTKVDKKVEPKSC
light: B5 light
- IL-17A EC50 (ng/ml), neutralisation of IL-17A (IL-6 secretion by Hela cells), with HSA (human recombinant IL-17A): 8.7 ng/mL
- IL-17A EC50 (ng/ml), neutralisation of IL-17A (IL-6 secretion by Hela cells), without HSA (human recombinant IL-17A): 10.6 ng/mL

Further lines, results first:

- binding result [3]: binds
B7: CA645/GM-CSFFwk3 (human) (CA645 Fab with human GM-CSF inserted into framework 3 of the VH domain) (Fab)
heavy: not shown
light: B5 light
notes: also called CA645/hGM-CSF antibody fusion protein

- binding result (IL-6 (R&D Systems)): binds
B9: CA645/VHH15Fwk3 (CA645 Fab with anti-IL-6 camelid VHH15 inserted into framework 3 of the VH domain) (bispecific antibody)
heavy: EVQLLESGGGLVQPGGSLRLSCAVSGIDLSNYAINWVRQAPGKGLEWIGIIWASGTTFYATWAKGRFTISRDNSGGGGSGGGGSQVQLVESGGGSVQAGGSLRLSCVAASGYTGCTYDMRWYRQAPGKEREFVSGIDSDGRATYADSVKGRFTISQSNAKIAVYLQMDSLKLEDTAMYYCNLQCLRYPGEYYWGQGTQVTVSSGGGGSGGGGSKNTVYLQMNSLRAEDTAVYYCARTVPGYSTAPYFDLWGQGTLVTVSSASTKGPSVFPLAPSSKSTSGGTAALGCLVKDYFPEPVTVSWNSGALTSGVHTFPAVLQSSGLYSLSSVVTVPSSSLGTQTYICNVNHKPSNTKVDKKVEPKSC
light: B5 light
notes: also called CA645/VHH15 antibody fusion protein

- binding result [2]: binds
B10: CA645/IL-15Fwk3 with 2xG4S linker (Fab)
heavy: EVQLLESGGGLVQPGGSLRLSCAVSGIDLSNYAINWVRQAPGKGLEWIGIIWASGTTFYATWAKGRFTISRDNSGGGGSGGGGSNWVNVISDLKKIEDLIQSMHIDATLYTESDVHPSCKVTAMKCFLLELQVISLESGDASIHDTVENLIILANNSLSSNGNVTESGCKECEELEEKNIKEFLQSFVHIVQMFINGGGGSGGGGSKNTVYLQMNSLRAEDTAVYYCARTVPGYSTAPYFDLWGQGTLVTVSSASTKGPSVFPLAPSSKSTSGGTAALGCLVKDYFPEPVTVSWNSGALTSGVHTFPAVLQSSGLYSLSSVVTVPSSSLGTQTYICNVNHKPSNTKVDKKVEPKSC
light: B5 light
notes: also called CA645 Fab heavy chain with human IL-15 inserted into framework 3 with 2xG4S linker

- binding result [2]: binds
B11: CA645/IL-15Fwk3 with bovine long linker (Fab)
heavy: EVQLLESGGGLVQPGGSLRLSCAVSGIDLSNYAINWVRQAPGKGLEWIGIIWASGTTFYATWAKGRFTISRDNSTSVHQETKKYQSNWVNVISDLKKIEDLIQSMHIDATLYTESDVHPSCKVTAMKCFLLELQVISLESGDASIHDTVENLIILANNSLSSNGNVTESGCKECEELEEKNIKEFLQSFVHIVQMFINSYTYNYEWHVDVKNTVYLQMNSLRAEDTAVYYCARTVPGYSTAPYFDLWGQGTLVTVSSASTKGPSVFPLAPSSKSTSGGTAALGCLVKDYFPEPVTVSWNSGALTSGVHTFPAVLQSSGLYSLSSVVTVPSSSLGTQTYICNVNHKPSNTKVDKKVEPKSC
light: B5 light
notes: also called CA645 Fab heavy chain with human IL-15 inserted into framework 3 with bovine long linker

- binding result [4]: binds
B12: CA497/IL-15Fwk3 (anti-IL-17A CA497 Fab with human IL-15 inserted into framework 3 of the VH domain) (Fab)
heavy: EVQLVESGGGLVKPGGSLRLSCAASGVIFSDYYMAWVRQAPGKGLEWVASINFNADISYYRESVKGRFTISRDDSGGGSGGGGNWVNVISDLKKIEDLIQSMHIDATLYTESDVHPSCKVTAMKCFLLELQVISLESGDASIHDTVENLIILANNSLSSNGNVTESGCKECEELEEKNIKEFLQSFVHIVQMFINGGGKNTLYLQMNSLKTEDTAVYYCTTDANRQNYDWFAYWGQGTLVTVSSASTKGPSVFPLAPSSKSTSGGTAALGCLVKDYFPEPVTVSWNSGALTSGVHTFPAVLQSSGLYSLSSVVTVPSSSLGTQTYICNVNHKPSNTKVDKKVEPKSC
light: AIQLTQSPSSLSASVGDRVTITCKASESVSSSMYSYMHWYQQKPGKAPKLLIYRASNLESGVPSRFSGSGSGTDFTLTISSLQPEDFATYYCQQSWTAPRTFGQGTKVEIKRTVAAPSVFIFPPSDEQLKSGTASVVCLLNNFYPREAKVQWKVDNALQSGNSQESVTEQDSKDSTYSLSSTLTLSKADYEKHKVYACEVTHQGLSSPVTKSFNRGEC
notes: also called CA497/IL-15 antibody fusion protein

- binding result [3]: binds
B13: CA645/GM-CSFCH1 (human) (CA645 Fab with human GM-CSF at the C-terminus of CH1, for comparison) (Fab, V domains shown)
VH: EVQLLESGGGLVQPGGSLRLSCAVSGIDLSNYAINWVRQAPGKGLEWIGIIWASGTTFYATWAKGRFTISRDNSKNTVYLQMNSLRAEDTAVYYCARTVPGYSTAPYFDLWGQGTLVTVSS
VL: DIQMTQSPSSVSASVGDRVTITCQSSPSVWSNFLSWYQQKPGKAPKLLIYEASKLTSGVPSRFSGSGSGTDFTLTISSLQPEDFATYYCGGGYSSISDTTFGGGTKVEIKR
notes: also called constant domain (CH1) fusion of the GM-CSF peptide (human)

From US20220073581A1 (UCB, published 2022)
